B1: Forkhead box protein C1 (Homo sapiens), Q12948 (parent)
chain: MQARYSVSSPNSLGVVPYLGGEQSYYRAAAAAAGGGYTAMPAPMSVYSHPAHAEQYPGGMARAYGPYTPQPQPKDMVKPPYSYIALITMAIQNAPDKKITLNGIYQFIMDRFPFYRDNKQGWQNSIRHNLSLNECFVKVPRDDKKPGKGSYWTLDPDSYNMFENGSFLRRRRRFKKKDAVKDKEEKDRLHLKEPPPPGRQPPPAPPEQADGNAPGPQPPPVRIQDIKTENGTCPSPPQPLSPAAALGSGSAAAVPKIESPDSSSSSLSSGSSPPGSLPSARPLSLDGADSAPPPPAPSAPPPHHSQGFSVDNIMTSLRGSPQSAAAELSSGLLASAAASSRAGIAPPLALGAYSPGQSSLYSSPCSQTSSAGSSGGGGGGAGAAGGAGGAGTYHCNLQAMSLYAAGERGGHLQGAPGGAGGSAVDDPLPDYSLPPVTSSSSSSLSHGGGGGGGGGGQEAGHHPAAHQGRLTSWYLNQAGGDLGHLASAAAAAAAAGYPGQQQNFHSVREMFESQRIGLNNSPVNGNSSCQMAFPSSQSLYRTSGAFVYDCSKF

Variants of: B1
Conditions: with C1QBP

Variant	effect of a mutation on the interaction
F112S	disrupting interaction

From IntAct's records for PubMed 18676636
